This passage reports protein production results from a protein production outcome set (Wang et al. 2014).

The series is described as follows: label from the status in PepcDB records.
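Also: failed if final PepcDB status was selected cloned or expressed and not failed if soluble or beyond.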

For the sequence “MSAPSSPSTSQTRPPARSLWRRRRTWFLVGGGGLGAAAVVVLLGIWWRSPTPEAAIALRQSDFAELRWQSRFAMDAATRQRARFLYALAIAPDQPQAALQALQGLERSYPLLGPYILKLRAQVQTQLGQDPRETWRQLLNTYPESPVQAEAVLALGQWDLAPATIQRWPRYPASNELARQLAKRQPAEAKRWLLQIAQFGRYRFDIDAVLSELQALPNLTARDRQQIADAYWQRDDYATAADLYARSPQTDETLYRQARSLDLTSQPEVARTLYQQLLQRFPQSPERERALVHLVRLDPANRDRYLQLLERQFALSLPEALGLAAATEPRYRPILLQRFPASPEAAALRWQQAWQQAEAGNLPQAIALVTQTRDRSPTIEAAAQAGFWLGRWQTQLGQTDAAQAAWQWVLQQHPDSYYAWRSAAALGWPVGDFSQVQAQQPAWPQAQSPQALPAGSAVLKELYALGQTEDAWRLWQQEGPSRDPSPSDRFISALLEASISRYDRAASLLKGLPIDSPLRQRSDFVSTLYPVVFKEEITAATQRDRLNPLLVLGLIRQESRFLPGATSVVGARGLMQLMPETAAEVAAELGLQQYDLGDPQTNIQLGSRYLRNVLDYWREDSLFAIASYNAGPGNVENWVRRFGRRDRDRWLEQIPFPETRDYVEKVLSNYWNYLRQSDRSLEQRLQQLDR”, the protein production result is “failed”.
The entry for “MSARMFVLCCIWFIVAFLWITITSALDKEWMIDGRGINNVCDVLMYLEEDDTRDVGVIMTLPLFFPFLWFALWRKKRGWFMYATALAIFGYWLWQFFLRYQFCL” is “failed”; for “MSARSGFWYACSPPSAPGWCRFFDLLTCCTDEDGLMRDVALCCRSIAIDVRGLLRIDTQEGSAEKLRPSQTDVFNALASFLVAVGSQPYCNLASHPRHLDALAIPDTRYPIPDTQPMTFREPVDLVALNAASRDTLIEHLGIVFTEAGDDWLRATMPVDARTRQPYGLLHGGASVVLAETLGSSAGNLCVDMTTRMCVGLEINANHLRAATQGLVTGTARAVHVGRSTHVWDITIENPVGKRVCVSRLTLAVVARGNG” it is “failed”.
To “MSASICCRCNEKIWPRAVCSLGKTYHPHHFTCKECGLVVDPKLFFAVDDDVVCSECYLDKHAARCSACRTPILERGVAAAERKWHEKCFRCVSCSKSLVSASFFEVNGYLFCKAHFRELFSSRCAGCEKPIDRRAVVALSTKWHAKCFKCHHCRKRISAREFWIENGQPICAACQTVVPSPRNLSAQ” belongs “failed”; to “MSASIMTWPVLSVVTFLPVLGAALVYLARGEDEAARRNARWISLWTTLITFAVSLLLVWHFDPANPGFQFVEKAPWLGNTITYHMGLDGISLPLVILTTAIMPFCIIASWRSVTVRVREYMIAFLILETLMIGTFSALDLVLFYLFFEGGLIPMFLIIGIWGGPRRVYASFKFFLYTLLGSVLMLLAIMALYWNAGTTDIPTLMRTSVPSGLQTWAWLAFFASFAVKMPMWPVHTWLPDAHVEAPTAGSVVLAAILLKMGGYGFLRFSLPMFPDASAYFAPLIYTLSVIAIIYTSLVALMQEDIKKLIAYSSVAHMGFVTMGIFAGTTQGVAGAVFQMVSHGIVSGALFLCVGVVYDRMHTREIAAYGGLVNRMPLYALVFMVFTMANVGLPGTSGFVGEFLTLLGTFRVNIPTATLATTGVILSAGYALWLYRKVVFGAMTKPALASIKDLTWREGLMMAPLLVLTILFGFYPKPVLDMSAASVQQLVNNYAAAVTAVKAAALP”, “failed”.
The entry for “MSASPQAPTPPDRSSPSVSSNLGAEGAGGRRLCGSVVLSAGKILSVDKTLWQALGLSAESLSGLPFLSFLEDPSREVLAARLRLAGPPWDLRTALRVDGRAIPVVLRGDGAADRTTDTPLQVILITLAPQEGEVEPVSQSALFDHIPLGVMLSDGLGRIAYANPAFLAEDIAAVRALLGATPQALATGYLHEGLARTLWEDLLCGRVWRNDVDLPTADGQRTHSRLTIIPLRRDDGAVDRLMTVIEPRSPATDSQAWQQVNHDTLTGLPNRVLFQDRLLTALASARRRNDQLAVLFVDLDHFKTVNDSLGHSFGDQLLQQVATRLSQCLRDSDTLARMGGDEFTIALTGDGHQRDYAMIANRILETLRRPFTLEGGHEVLIGSSIGITLFPNDAEDVDTLLRNADTAMYRAKASGRNAFQFFTEEMNREIQSHLDLENALRRAVRAMDLTIHYQPVVDSATLAVVSAEALVRWPLADKGFIPPSRFIPVAEELGLIDEIGGWVLWNACTQAKVWQAQGAKAFRVSVNVSWRQLRNPDFALRVREALEGTGLGAAFLELEITEGMVLRDPQGIAPALMALSEMGVALAIDNFGSGHSSIKCLRQFPFSILKLDRSCVADVLTSHEDAVLVETAAIMARRLGLTVVAEGVETHAQLEFLREHYCDLIQGYLFGRPLPPEDFARML” is “failed”; for “MSASSLFNLPLIRLRSLALSSSFSSFRFAHRPLSSISPRKLPNFRAFSGTAMTDTKDAGMDAVQRRLMFEDECILVDETDRVVGHDSKYNCHLMENIEAKNLLHRAFSVFLFNSKYELLLQQRSNTKVTFPLVWTNTCCSHPLYRESELIQDNALGVRNAAQRKLLDELGIVAEDVPVDEFTPLGRMLYKAPSDGKWGEHELDYLLFIVRDVKVQPNPDEVAEIKYVSREELKELVKKADAGEEGLKLSPWFRLVVDNFLMKWWDHVEKGTLVEAIDMKTIHKL” it is “failed”; for “MSASVVCVVGNPNCGKTTLFNALTGGRQSVGNWPGVTVEKKVGAYRHGGEAVTIVDLPGVYSLTPTSSSSEDERVARDYILSGEAGLVLNIVDASNLERNLYLTAQLLEMRVPMVVIVNMMDIAASRHLDIDIDALSKSLDCKVVPMVASRRRGLDDLREVIAQSMGRTTPPAASAPYPPAVSEAVGRIAATLPADSRADRRWTALQLLEGDSTLLRDLPPATALALESDLKQAAQSGTEDFDILIADARYGFVGAIALGAVIRKGQMSRTLTDRIDKVVLHRVLGIPIFLAMMYLMFVFTINVGGAFIDFFDQFAGTLFVDGFGHLLGGAGAPDWLTALLAKGVGGGVQTVATFIPVIGFLYLFLSVLEDSGYMARAAFVMDRFMRGIGLPGKAFVPLIVGFGCNVPAVMATRTMDSRRDRLITVMMAPFMSCGARLPVYVLFAAAFFPSGGQNLVFALYLIGILVAIATGLLLKTTALRGEASPFVMEMPPYHLPTVAGILLRTWDRLKSFILRAGKLVVAVVVVLSFLNSWGTDGSFGNEDTDKSVLAAIGKAIVPVFAPMGISEENWPATVGVFTGIFAKEAVVGTLDALYGTIAEGNAAAAQAEADPEAAATEEPEAFDLWGGLAGAFATIPANLSNVAGALADPLGIEVGDLSDRSAVAADQEISTSSIDAIALLFDGAIGAFAYLLMVLLYMPCVAAVSAIWREVGTRWTLFAAAWTTGMGYGAAVLTYQIGTFSRHPVSSAVDIAVVLAVLAAAIALLRLAGRGSAEAGPISAGQTAS” it is “failed”.
On to “MSATLKDYLNKRVVIIKVDGECLIASLNGFDKNTNLFITNVFNRISKEFICKAQLLRGSEIALVGLIDAENDDSLAPIDEKKVPMLKDTKNKIENEHVIWEKVYESKTK”, for which the protein production entry was “failed”.
Take “MSATTTNLKEAIVNRRSIRKVTKNDAITKERIEEVLKTALHAPTSFNMQSGRMVVLMDGEHEKFWDIVKETLRARVPAENFEATVERLKGFHAGVGTVLFFEDQATVEKMQENAPLYKDQFPFWSHQGNAMLQHTVWMLLSAEGIGASLQHYNPIVDAEVKETWNIPAEWSLVGQMPFGEPNEQPAERTFLPTEDVVKFY”: the protein production result is recorded as “not failed”.
The entry for “MSAVFSGGLTQAGGMSSTETVDSSAVSSGTISDYVEAMGPSWIAGAIAAGPATIASLVTAGGAFGYSLLWVVVLSAGAGALAQYLAMRLGLLTERGIVAVVEDHLGETWAWLLVGDAVLAAGVAQLVIMKTVATVSATVTGIDARIWGVVWALILAAGLAGGGYRFLELAAKILVLLVVVAFVASLFVVPIDAGAAVAGLVPSVPSGSALVAAGILGGAVHITLITMHSYTMRARGWTREDYDLATVDVGASMLVAFGIYSLAIFLVTASVLTSGDLTTVGAAEALGPLVGDSARWLFLLGLWGAAVSTLGGNTIVPPFLLADKLGWGTTIEDNRYRGLLAAVALLSAPGAFIGGNVLGQLVLVLALGTVGTPFAIALVLYLLNSAAVPESNSLLANVGGLALIAVSGGLAANFVVEQLGGGVGPLSGFVLAFAIALGLAMAGLGGKFLREELLA” is “failed”.
To “MSCVDKGFSPYISLLISGLTVVFDQVIKWQTQQSIAYGDSISLTPFFNWVHTWNTGAAFGLLSNGGGWQRYFFIGVALLMSVALTRLIFNKVSKRDGISYGLILGGAVGNLIDRLFRGYVVDSLHLGWQTWQLPVFNIADIAITLGVILLLLSNLQVSMIPNLPGSK” belongs “failed”.
